Columns and labels:
[1] = target: recombinant human GPC3 protein (human) (UniProt P51654); test: ELISA on plate-coated human GPC3, OD 450 nm
[2] = target: GPC3 expressed endogenously on HepG2 and Hep3B human hepatoma cells (human) (UniProt P51654); test: flow cytometry on HepG2 cells (endogenous GPC3), MFI
[3] = target: GPC3 expressed endogenously on HepG2 and Hep3B human hepatoma cells (human) (UniProt P51654); test: flow cytometry on Hep3B cells (endogenous GPC3), MFI
[4] = target: T1, GPC3 expressed endogenously on HepG2 and Hep3B human hepatoma cells (human, UniProt P51654 25-554); test: flow cytometry on HepG2 cells (endogenous GPC3), MFI
T1 construct: Endogenous GPC3 of human hepatoma lines; also called HepG2 cells; Hep3B cells
T1 sequence (P51654 other isoform, or with tags, fused parts or gaps limits assumed, form in doubt): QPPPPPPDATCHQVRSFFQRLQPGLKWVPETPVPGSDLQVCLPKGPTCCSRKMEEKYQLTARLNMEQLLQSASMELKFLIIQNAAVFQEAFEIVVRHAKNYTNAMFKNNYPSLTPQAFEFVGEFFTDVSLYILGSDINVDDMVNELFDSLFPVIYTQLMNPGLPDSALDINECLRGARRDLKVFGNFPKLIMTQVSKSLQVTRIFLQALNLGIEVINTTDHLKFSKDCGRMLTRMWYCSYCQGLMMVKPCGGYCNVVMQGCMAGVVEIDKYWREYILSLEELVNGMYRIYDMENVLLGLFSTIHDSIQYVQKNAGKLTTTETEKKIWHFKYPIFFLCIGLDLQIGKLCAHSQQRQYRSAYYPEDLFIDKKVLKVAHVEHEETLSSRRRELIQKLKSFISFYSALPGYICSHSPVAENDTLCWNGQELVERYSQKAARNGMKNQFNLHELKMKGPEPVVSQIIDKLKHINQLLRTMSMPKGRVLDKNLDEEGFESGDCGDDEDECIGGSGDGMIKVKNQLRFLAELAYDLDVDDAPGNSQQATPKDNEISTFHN

Chain of GPC3 expressed endogenously on HepG2 and Hep3B human hepatoma cells (human) (P51654 other isoform, or with tags, fused parts or gaps limits assumed, form in doubt): as above
Chain of recombinant human GPC3 protein (human) (P51654 other isoform, or with tags, fused parts or gaps limits assumed, form in doubt): as above

EC50 (read off the curve) [1] [µg/mL]	EC50 (read off the curve) [2] [nM]	EC50 (read off the curve) [3] [nM]	EC50 (read off the curve) [4] [nM]	Molecule
0.02	2	2	–	HN3 VHH-Fc (Fc fusion)
–	–	–	~0.3	1B01 llama-human chimeric bivalent VHH-Fc (Fc fusion, expressed in ExpiCHO; also called Clone 1B01; 1B01 llama VHH fused to human IgG1 Fc; not shown: human IgG1 Fc fused to the C-terminal of the VHH) QVQLQESGGGLVQAGGSLRLSCAAVGLPFSNYAMGWFRQAPGEEREFVSAVSANGGNEYYADSVKDRFTISRDNAKNTVYLRMLSLKLEDTAIYYCATVRRRGGTFTVGSYRGQGTQVTVSS

— patent publication US20240043558A1 (SHANGHAI HENLIUS BIOTECH, published 2024)
